Experiments:
N[C@@H](CCC(=O)O)C(=O)O = system: T1, N[C@@H](CCC(=O)O)C(=O)O; test: purified protein; type: biochemical, Aspergillus niger; conditions: reverse reaction, Tris-HCl pH 9.3, NADP+, room temperature
T1 construct: full-length cDNA in pET43.1(b) NdeI/HindIII, E. coli BL21(DE3), without a tag, purified

O=C(O)CCC(=O)C(=O)O = system: T2, O=C(O)CCC(=O)C(=O)O; test: purified protein; type: biochemical, Aspergillus niger; conditions: forward reaction, sigmoid saturation, Tris-HCl pH 8.0, ammonium chloride and NADPH, room temperature
T2 construct: full-length cDNA in pET43.1(b) NdeI/HindIII, E. coli BL21(DE3), without a tag, purified

[1] = biological target: T3, AnGDH (NADP-glutamate dehydrogenase from Aspergillus niger, recombinant) (Aspergillus niger, UniProt B6V7E4); test: time-dependent inactivation of forward activity, kapp versus concentration; type: biochemical; conditions: covalent, mixed disulfide at Cys141; incubation at 37°C; residual activity in standard forward assay pH 8.0
T3 construct: full-length cDNA in pET43.1(b) NdeI/HindIII, E. coli BL21(DE3), without a tag, purified
T3 sequence (B6V7E4 1-460): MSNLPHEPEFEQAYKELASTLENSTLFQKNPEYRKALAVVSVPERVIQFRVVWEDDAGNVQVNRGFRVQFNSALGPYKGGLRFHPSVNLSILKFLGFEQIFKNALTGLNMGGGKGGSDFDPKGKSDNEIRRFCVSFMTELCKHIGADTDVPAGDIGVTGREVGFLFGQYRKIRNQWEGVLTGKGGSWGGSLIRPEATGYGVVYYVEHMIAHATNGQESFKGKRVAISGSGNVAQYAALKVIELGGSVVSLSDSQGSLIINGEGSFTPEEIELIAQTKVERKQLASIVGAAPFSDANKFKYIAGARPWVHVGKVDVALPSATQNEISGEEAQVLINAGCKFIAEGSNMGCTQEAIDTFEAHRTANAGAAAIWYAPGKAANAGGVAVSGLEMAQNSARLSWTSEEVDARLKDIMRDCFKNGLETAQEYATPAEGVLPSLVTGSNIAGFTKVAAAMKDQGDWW

N = test: purified protein; conditions: forward reaction, Tris-HCl pH 8.0, 2-oxoglutarate and NADPH, room temperature
[2] = biological target: T3, AnGDH (NADP-glutamate dehydrogenase from Aspergillus niger, recombinant); test: residual forward activity after […] h incubation; type: biochemical; conditions: covalent; saturated cystine (0.47 mM), 1 h, 37°C; standard forward assay pH 8.0
purified protein [3] = substrate: N; test: purified protein; conditions: forward reaction, Tris-HCl pH 8.0, 2-oxoglutarate and NADPH, room temperature; remark: listed apart in the source
purified protein [4] = substrate: NC(=O)C1=CN([C@@H]2O[C@H](COP(=O)(O)OP(=O)(O)OC[C@H]3O[C@@H](n4cnc5c(N)ncnc54)[C@H](OP(=O)(O)O)[C@@H]3O)[C@@H](O)[C@H]2O)C=CC1; test: purified protein; type: biochemical, Aspergillus niger; conditions: forward reaction, Tris-HCl pH 8.0, 2-oxoglutarate and ammonium chloride, room temperature
purified protein [5] = substrate: NC(=O)c1ccc[n+]([C@@H]2O[C@H](COP(=O)(O)OP(=O)(O)OC[C@H]3O[C@@H](n4cnc5c(N)ncnc54)[C@H](OP(=O)(O)O)[C@@H]3O)[C@@H](O)[C@H]2O)c1; test: purified protein; type: biochemical, Aspergillus niger; conditions: reverse reaction, Tris-HCl pH 9.3, L-glutamate, room temperature
purified protein [6] = substrate: N[C@@H](CCC(=O)O)C(=O)O; test: purified protein; type: biochemical, Aspergillus niger; conditions: reverse reaction, Tris-HCl pH 9.3, NADP+, room temperature
purified protein [7] = substrate: O=C(O)CCC(=O)C(=O)O; test: purified protein; type: biochemical, Aspergillus niger; conditions: forward reaction, sigmoid saturation, Tris-HCl pH 8.0, ammonium chloride and NADPH, room temperature

With “AnGDH (NADP-glutamate dehydrogenase from Aspergillus niger, recombinant) (Aspergillus niger; C415S)” the Km (N[C@@H](CCC(=O)O)C(=O)O) was 36800 µM and the K0.5 (O=C(O)CCC(=O)C(=O)O) was 15.50 mM.

In the case of OCCSSCCO [2-HED], the “second order inactivation rate constant” value [1] is reported as 0.937 M⁻¹ s⁻¹.

“AnGDH (NADP-glutamate dehydrogenase from Aspergillus niger, recombinant) (Aspergillus niger; C141S)” was tested, and the Km (N) was 1200 µM, the Km (N[C@@H](CCC(=O)O)C(=O)O) was 28600 µM and the K0.5 (O=C(O)CCC(=O)C(=O)O) was 4.00 mM.

For N[C@@H](CSSC[C@H](N)C(=O)O)C(=O)O [Cystine], the “Residual activity (%) / Forward” value [2] was 8.3±1.9%.

B1: AnGDH (NADP-glutamate dehydrogenase from Aspergillus niger, recombinant) (Aspergillus niger) (protein)
chain: MSNLPHEPEFEQAYKELASTLENSTLFQKNPEYRKALAVVSVPERVIQFRVVWEDDAGNVQVNRGFRVQFNSALGPYKGGLRFHPSVNLSILKFLGFEQIFKNALTGLNMGGGKGGSDFDPKGKSDNEIRRFCVSFMTELCKHIGADTDVPAGDIGVTGREVGFLFGQYRKIRNQWEGVLTGKGGSWGGSLIRPEATGYGVVYYVEHMIAHATNGQESFKGKRVAISGSGNVAQYAALKVIELGGSVVSLSDSQGSLIINGEGSFTPEEIELIAQTKVERKQLASIVGAAPFSDANKFKYIAGARPWVHVGKVDVALPSATQNEISGEEAQVLINAGCKFIAEGSNMGCTQEAIDTFEAHRTANAGAAAIWYAPGKAANAGGVAVSGLEMAQNSARLSWTSEEVDARLKDIMRDCFKNGLETAQEYATPAEGVLPSLVTGSNIAGFTKVAAAMKDQGDWW
notes: full-length cDNA in pET43.1(b) NdeI/HindIII, E. coli BL21(DE3), without a tag, purified
B1 was tested, and the Km (purified protein [3]) was 1100 µM, the Km (purified protein [4]) was 23 µM and the Km (purified protein [5]) was 28 µM. The Km (purified protein [6]) was 30900 µM and the K0.5 (purified protein [7]) was 5.70 mM.
